{
  "source": "the RNAGym collection of RNA variant scans (doi:10.7554/elife.90254)",
  "parents": {"B1": {"name": "LINE1-full (parent)", "chain": "UACGUAGGUGGUUUUCCCCUGAUAGUGCUAAGGGGGCCUGGAAGUUUGGACUGGGCAGAGCUCAACACAGCGUGGCAAAGUGGCUGUGGCUAGACUGCCUCUCUGGAUUCCUCGUCACUCAGCAGGGCAUCUCUGAGAGAAAUGCC"}},
  "data": [
    {"variants_of": "B1", "experiment": "self-cleavage, relative activity (ratio to wild type); higher = more cleavage; in vitro, sequencing; the parent is a self-cleaving ribozyme", "values": [
      {"variant": "U112A A140G", "self-cleavage": 1.46},
      {"variant": "A117G C120U", "self-cleavage": 2.18},
      {"variant": "C18G A124G", "self-cleavage": 1.02},
      {"variant": "U26C U102A", "self-cleavage": 1.31},
      {"variant": "C19G A77G", "self-cleavage": 2.07},
      {"variant": "U52C G53U", "self-cleavage": 1.6},
      {"variant": "A64C C95A", "self-cleavage": 0.01},
      {"variant": "A107C", "self-cleavage": 1.56},
      {"variant": "U46C G106U", "self-cleavage": 0.84},
      {"variant": "G35A G86A", "self-cleavage": 0.05},
      {"variant": "A59U U81C", "self-cleavage": 0.87},
      {"variant": "A69G U81A", "self-cleavage": 0.38},
      {"variant": "U47G U102A", "self-cleavage": 1.34},
      {"variant": "U96C U119A", "self-cleavage": 0.18},
      {"variant": "G7A U108C", "self-cleavage": 1.57},
      {"variant": "U15C A50U", "self-cleavage": 1},
      {"variant": "U13A A129U", "self-cleavage": 0.81},
      {"variant": "A22G U52G", "self-cleavage": 0.92},
      {"variant": "U15A U143C", "self-cleavage": 1.26},
      {"variant": "A65G U109C", "self-cleavage": 0.06},
      {"variant": "A77U G127A", "self-cleavage": 1.48},
      {"variant": "A24U G106A", "self-cleavage": 1.51},
      {"variant": "C18U U108C", "self-cleavage": 0},
      {"variant": "U9C G60C", "self-cleavage": 0.07},
      {"variant": "C37U U109A", "self-cleavage": 1.24},
      {"variant": "A59U U62C", "self-cleavage": 0.06},
      {"variant": "U15A G125U", "self-cleavage": 0.89},
      {"variant": "U47A U134C", "self-cleavage": 1.39},
      {"variant": "U20G A69G", "self-cleavage": 1.05},
      {"variant": "A30C A138G", "self-cleavage": 1.84},
      {"variant": "U85A A142G", "self-cleavage": 0.08},
      {"variant": "G40U A92G", "self-cleavage": 0.02},
      {"variant": "U132A A141U", "self-cleavage": 0.14},
      {"variant": "A30G U85C", "self-cleavage": 0.45},
      {"variant": "U39G A138G", "self-cleavage": 1.01},
      {"variant": "U5A U12C", "self-cleavage": 0.74},
      {"variant": "G7U U104C", "self-cleavage": 0.9},
      {"variant": "C3A G55C", "self-cleavage": 0.07},
      {"variant": "A79G U87G", "self-cleavage": 0.07},
      {"variant": "A77U U104C", "self-cleavage": 1.74},
      {"variant": "U12C G80A", "self-cleavage": 0.84},
      {"variant": "U73A U143A", "self-cleavage": 1.75},
      {"variant": "U14C U85C", "self-cleavage": 0.23},
      {"variant": "G83A A124U", "self-cleavage": 0.79},
      {"variant": "A64C C145U", "self-cleavage": 0.4},
      {"variant": "G34A U46C", "self-cleavage": 1.27},
      {"variant": "G36A U85A", "self-cleavage": 0.04},
      {"variant": "U73C A92G", "self-cleavage": 0.16},
      {"variant": "U100G A138G", "self-cleavage": 1.27},
      {"variant": "A50G U96C", "self-cleavage": 0.1},
      {"variant": "U1A G70C", "self-cleavage": 0.43},
      {"variant": "A64U A121G", "self-cleavage": 0.49},
      {"variant": "U5G A124U", "self-cleavage": 0.96},
      {"variant": "C61A U104C", "self-cleavage": 0.04},
      {"variant": "A43G A140G", "self-cleavage": 1.35},
      {"variant": "C38G U73A", "self-cleavage": 1.76},
      {"variant": "G11A A24U", "self-cleavage": 1.72},
      {"variant": "U13A U47C", "self-cleavage": 0.59},
      {"variant": "A6G U14A", "self-cleavage": 0.95},
      {"variant": "U62C G89A", "self-cleavage": 0.01},
      {"variant": "U87C U143C", "self-cleavage": 0.21},
      {"variant": "U96C C131U", "self-cleavage": 0.09},
      {"variant": "U14C U102A", "self-cleavage": 1.67},
      {"variant": "G114A U143A", "self-cleavage": 0.68},
      {"variant": "C18A U73G", "self-cleavage": 1.01},
      {"variant": "A78G U130C", "self-cleavage": 1.29},
      {"variant": "G89A", "self-cleavage": 0.04},
      {"variant": "U91C C101U", "self-cleavage": 0.69},
      {"variant": "A79G A92U", "self-cleavage": 0.66},
      {"variant": "G4A A121C", "self-cleavage": 1.72},
      {"variant": "A78U U104C", "self-cleavage": 0.87},
      {"variant": "U12G C145G", "self-cleavage": 0.99},
      {"variant": "G25U A65G", "self-cleavage": 0.01},
      {"variant": "A31U A69G", "self-cleavage": 0.75},
      {"variant": "U45C U115G", "self-cleavage": 2.1},
      {"variant": "U46C C120U", "self-cleavage": 1.57},
      {"variant": "U87C C90U", "self-cleavage": 0.07},
      {"variant": "U5C C95G", "self-cleavage": 0.17},
      {"variant": "U47C U85C", "self-cleavage": 0.24},
      {"variant": "A64U A94C", "self-cleavage": 0.05},
      {"variant": "A65G U119A", "self-cleavage": 0.05},
      {"variant": "G34U A107U", "self-cleavage": 1.96},
      {"variant": "G122A", "self-cleavage": 1.13},
      {"variant": "U108C U119A", "self-cleavage": 1.53},
      {"variant": "A42G C63U", "self-cleavage": 0.4},
      {"variant": "G74A A92U", "self-cleavage": 0.1},
      {"variant": "U104A G114U", "self-cleavage": 1.09},
      {"variant": "U96C G144A", "self-cleavage": 0.25},
      {"variant": "U47A C111A", "self-cleavage": 1.18},
      {"variant": "A30G A69G", "self-cleavage": 0.55},
      {"variant": "U85C U115C", "self-cleavage": 0.21},
      {"variant": "U12G U108C", "self-cleavage": 1.52},
      {"variant": "A42G U87A", "self-cleavage": 0.1},
      {"variant": "A31C U87A", "self-cleavage": 0.07},
      {"variant": "G55A U73A", "self-cleavage": 0.12},
      {"variant": "A136U", "self-cleavage": 1.23},
      {"variant": "G4A G11A", "self-cleavage": 0.58},
      {"variant": "U20C A107U", "self-cleavage": 1.34},
      {"variant": "U52G U132C", "self-cleavage": 1.42},
      {"variant": "U12G U87C", "self-cleavage": 0.16},
      {"variant": "U12G U87A", "self-cleavage": 0.09},
      {"variant": "A94U A124G", "self-cleavage": 0.33},
      {"variant": "G10A A57U", "self-cleavage": 0.07},
      {"variant": "A64G A107G", "self-cleavage": 0.33},
      {"variant": "U1A U73A", "self-cleavage": 1.67},
      {"variant": "U102A A142G", "self-cleavage": 1.9},
      {"variant": "U81A U85C", "self-cleavage": 0.16},
      {"variant": "U12A U143C", "self-cleavage": 1.14},
      {"variant": "A24U C145U", "self-cleavage": 1.4},
      {"variant": "U115C C116U", "self-cleavage": 1.18},
      {"variant": "U29A U85A", "self-cleavage": 0.12},
      {"variant": "A30U", "self-cleavage": 1.1},
      {"variant": "C51U", "self-cleavage": 1.3},
      {"variant": "A67G U108C", "self-cleavage": 0.6},
      {"variant": "U1C U143C", "self-cleavage": 1.18},
      {"variant": "U14G A69G", "self-cleavage": 0.42},
      {"variant": "U13C C19U", "self-cleavage": 1.01},
      {"variant": "U96A C123U", "self-cleavage": 0.06},
      {"variant": "G53A U143C", "self-cleavage": 1.59},
      {"variant": "U12G G105U", "self-cleavage": 0.67},
      {"variant": "C123U G135C", "self-cleavage": 1.97},
      {"variant": "C66U", "self-cleavage": 0.05},
      {"variant": "G10A A117U", "self-cleavage": 1.21},
      {"variant": "U85A U134G", "self-cleavage": 0.12},
      {"variant": "U85A C128G", "self-cleavage": 0.06},
      {"variant": "G41U U115A", "self-cleavage": 1.29},
      {"variant": "G41A A140G", "self-cleavage": 1.05},
      {"variant": "A65U U102C", "self-cleavage": 0.3},
      {"variant": "G89A U112C", "self-cleavage": 0.05},
      {"variant": "G72A", "self-cleavage": 1.3},
      {"variant": "G40A A43G", "self-cleavage": 1},
      {"variant": "G34U A43G", "self-cleavage": 1.06},
      {"variant": "C3A G70A", "self-cleavage": 0.08},
      {"variant": "A42G A138C", "self-cleavage": 0.41},
      {"variant": "A57U A67G", "self-cleavage": 0.12},
      {"variant": "A67G C98U", "self-cleavage": 0.06},
      {"variant": "U109C A129G", "self-cleavage": 1.3},
      {"variant": "A57C U96A", "self-cleavage": 0.01},
      {"variant": "U26C C131G", "self-cleavage": 2.07},
      {"variant": "A129U A141G", "self-cleavage": 1.34},
      {"variant": "A77U U109C", "self-cleavage": 0.98},
      {"variant": "U9C U29C", "self-cleavage": 1.72},
      {"variant": "U39A A117G", "self-cleavage": 1.39},
      {"variant": "G105A A142G", "self-cleavage": 1.24},
      {"variant": "A78U A142U", "self-cleavage": 2.12},
      {"variant": "U87C C103A", "self-cleavage": 0.1},
      {"variant": "A31G A57G", "self-cleavage": 0.95},
      {"variant": "A67U A92U", "self-cleavage": 0.05},
      {"variant": "U47A A50G", "self-cleavage": 1.2},
      {"variant": "A22G U143A", "self-cleavage": 1.19},
      {"variant": "U108A A129U", "self-cleavage": 1.92},
      {"variant": "U20C A31U", "self-cleavage": 1.08},
      {"variant": "U45G", "self-cleavage": 1.18},
      {"variant": "C71G U81C", "self-cleavage": 0.27},
      {"variant": "A94G A142G", "self-cleavage": 0.41},
      {"variant": "G58A U102C", "self-cleavage": 0.04},
      {"variant": "U20C A50G", "self-cleavage": 0.66},
      {"variant": "A6G U29C", "self-cleavage": 0.74},
      {"variant": "G114A A140G", "self-cleavage": 1.14},
      {"variant": "U13A A50U", "self-cleavage": 0.58},
      {"variant": "U96G A124G", "self-cleavage": 0.19},
      {"variant": "U119G", "self-cleavage": 1.63},
      {"variant": "U119A", "self-cleavage": 1.44},
      {"variant": "A65G C101U", "self-cleavage": 0.04},
      {"variant": "A92U C118G", "self-cleavage": 0.37},
      {"variant": "U104A A124U", "self-cleavage": 1.25},
      {"variant": "A24G U143A", "self-cleavage": 0.72}
    ]}
  ]
}
